Where a chain is given by its changes, count along the chain named. Numbers in names are those of the source. Marks after values point to notes of the source that are not given here.
B1: IgG1-AXL-733: human IgG1,κ anti-AXL antibody, VH SEQ ID NO:34, VL SEQ ID NO:35; FN1 domain binding (antibody, V domains shown)
VH: QVQLVESGGGVVQPGRSLRLSCAASGFSFSTYAMHWVRQAPGKGLEWVAVISYDGDNKYSADSVKGRFTISRDNSKNTLYLQMNSLRAEDTAVYYCARGRKLGIDAFDIWGQGTMVTVSS
VL: AIQLTQSPSSLSASVGDRVTITCRASQGISSALAWYQQKPGKAPKLLIYDASSLESGVPSRFSGSGSGTDFTLTISGLQPEDFATYYCQQFNSYPFTFGPGTKVDIK
modifications: homo sapiens
B2: IgG1-AXL-183-N52Q: point mutant of IgG1-AXL-183, VH SEQ ID NO:17, VL SEQ ID NO:18 (antibody, V domains shown)
VH: QVQLQQWGAGLLKPSETLSLTCAVYGGSFSGYYWSWIRQPPGKGLEWIGEIQQSGSTNYNPSLKSRVTISVDTSKNQFSLKLSSVTAADTSVYYCASGNWDHFFDYWGQGTLVTVSS
VL: DIQMTQSPSSVSASVGDRVTITCRASQGISSWLAWYQHKPGKAPKLLIYATSSLQSGVTSRFSGSGSGTDFTLTISSLQPEDFATYYCQQAKSFPWTFGQGTKVEIK
modifications: homo sapiens
B3: IgG1-AXL-183: human IgG1,κ anti-AXL antibody, VH SEQ ID NO:16, VL SEQ ID NO:18; FN1 domain binding (antibody, V domains shown)
VH: B2 VH with Q52N
VL: B2 VL
modifications: homo sapiens
B4: IgG1-AXL-511: human IgG1,κ anti-AXL antibody, VH SEQ ID NO:136, VL SEQ ID NO:140; Ig2 domain binding (antibody, V domains shown)
VH: EVQLLESGGGLVQPGGSLRLSCAASGFTFSSYAMNWVRQAPGKGLEWVSGISGSGGHTYHADSVKGRFTISRDNSKNTLYLQMNSLRAEDTAVYYCAKDRYDILTGYYNLLDYWGQGTLVTVSS
VL: DIQMTQSPSSLSASVGDRVTITCRASQGISSWLAWYQQKPEEAPKSLIYAASSLQSGVPSRFSGSGSGTDFTLTISSLQPEDFATYYCQQYNSYPLTFGGGAKVEIK
modifications: homo sapiens
B5: IgG1-AXL-140: human IgG1,κ anti-AXL antibody, VH SEQ ID NO:3, VL SEQ ID NO:4 (antibody, V domains shown)
VH: EVQLLESGGGLVQPGGSLRLSCAASGFTFSSYAMTWVRQAPGKGLEWVSAISISGASTFYADSVKGRFTISRDNSKNTLSLQMNSLRAEDTAVYFCRGYSGYVYDAFDIWGQGTMVTVSS
VL: B4 VL with S31N, E42K, A102T
modifications: homo sapiens
B6: IgG1-AXL-187: human IgG1,κ anti-AXL antibody, VH SEQ ID NO:19, VL SEQ ID NO:20 (antibody, V domains shown)
VH: QVPLQQWGAGLLKPSETLSLTCAVYGGSFSGYHWSWIRQPPGKGLEWIGEISHSGRTNYNPSLKSRVTISIDTSKNQFSLKLSSVTAADTAVYYCASFITMIRGTIITHFDYWGQGTLVTVSS
VL: B4 VL with E42K, N92H, L96Y, G100Q, A102T, V104L
modifications: homo sapiens
B7: IgG1-AXL-726: human IgG1,κ anti-AXL antibody, VH SEQ ID NO:31, VL SEQ ID NO:33; FN2 domain binding (antibody, V domains shown)
VH: B6 VH with P3Q, V24I, Y25D, H33Y, T86A, S97R, T105A, T117A
VL: B4 VL with E42K, N92H, L96Y, G100Q, A102T, V104L
modifications: homo sapiens

Columns and labels:
[1] = target: T1, human AXL with a mouse ECD (Mus musculus, UniProt Q00993, A791T/A867T/C878S/D603E/D853E/E609A/F637Y/G606S/G869S/H824Y/L452V/L825P/L872Q/P881A/R785Q/R828P/S823G/S856P/S873P/T871A/V766A); assay: Flow cytometry binding to HEK293T cells transfected with human AXL with mouse ECD; conditions: 0.0024-10 μg/mL
T1 construct: aa 1-441); expressed in transfected cells; host or cells: HEK293T
T1 sequence (Q00993 19-888 with the stated changes): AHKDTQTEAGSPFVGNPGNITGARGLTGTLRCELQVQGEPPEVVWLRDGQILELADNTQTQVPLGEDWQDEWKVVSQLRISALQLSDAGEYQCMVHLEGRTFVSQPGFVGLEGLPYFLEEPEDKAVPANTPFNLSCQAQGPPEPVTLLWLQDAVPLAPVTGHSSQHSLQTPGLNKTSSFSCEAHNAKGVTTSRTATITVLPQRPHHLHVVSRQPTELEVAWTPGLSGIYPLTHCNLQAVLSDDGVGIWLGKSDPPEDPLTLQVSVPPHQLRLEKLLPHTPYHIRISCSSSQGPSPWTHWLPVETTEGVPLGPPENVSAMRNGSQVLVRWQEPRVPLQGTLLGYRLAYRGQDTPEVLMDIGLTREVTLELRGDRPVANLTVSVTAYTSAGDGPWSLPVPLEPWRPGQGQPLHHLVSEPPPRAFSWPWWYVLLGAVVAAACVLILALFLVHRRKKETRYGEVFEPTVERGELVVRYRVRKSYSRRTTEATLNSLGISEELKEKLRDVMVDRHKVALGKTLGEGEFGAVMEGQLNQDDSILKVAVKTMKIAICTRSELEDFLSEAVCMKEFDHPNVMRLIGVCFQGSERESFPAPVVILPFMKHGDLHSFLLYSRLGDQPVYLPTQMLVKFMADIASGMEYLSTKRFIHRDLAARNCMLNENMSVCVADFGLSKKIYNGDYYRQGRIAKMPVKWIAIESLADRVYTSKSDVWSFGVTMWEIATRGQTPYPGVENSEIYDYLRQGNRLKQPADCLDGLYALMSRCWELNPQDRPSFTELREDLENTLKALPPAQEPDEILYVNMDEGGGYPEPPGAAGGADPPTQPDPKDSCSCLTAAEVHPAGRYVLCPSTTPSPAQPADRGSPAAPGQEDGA

[2] = target: Gas6 binding to AXL on A431 cells (Homo sapiens, UniProt P30530); assay: Gas6 binding to A431 cells pre-incubated with AXL antibodies; parameters: endogenous in cells; host or cells: A431; conditions: pre-incubation with 10 μg/mL antibody; control antibody b12
Description: Alternatively, A431 cells were pre-incubated with 10 μg/mL AXL antibodies (15 minutes, 4° C.) to assess if the AXL ligand Gas6 could still bind in presence of AXL antibodies. […] After washing three times in PBS/0.1% BSA/0.02% azide, cells were incubated with mouse anti-Gas6 IgG2a (R&D Systems; cat no. MAB885) at 4° C. for 30 min. After washing three times in PBS/0.1% BSA/0.02% azide, cells were incubated with FITC-labelled goat anti-mouse IgG (Dako, Heverlee, Belgium; cat no. F049702) at 4° C. for 30 min in the dark. Next, cells were washed twice in PBS/0.1% BSA/0.02% azide, resuspended in 120 μL PBS/0.1% BSA/0.02% azide and analyzed on a FACS Cantoll (BD Biosciences).
(§1) Binding curves were analyzed using non-linear regression (sigmoidal dose-response with variable slope) using GraphPad Prism V5.04 software (GraphPad Software, San Diego, Calif., USA).
Therefore, binding of Gas6 to A431 cells that had been pre-incubated with 10 μg/mL AXL antibodies was tested as described in Example 2.

[3] = target: T2, human AXL with a cynomolgus monkey extracellular domain (ECD) (Homo sapiens, UniProt P30530, P441T/S191N/S285L/T105A/T112A/T125N/T443A); assay: Flow cytometry binding to HEK293T cells transfected with human AXL with cynomolgus ECD; conditions: at least 3 experiments
T2 construct: aa 1-447); expressed in transfected cells; host or cells: HEK293T

[4] = target: T3, AXL on A431 cells (Homo sapiens, UniProt P30530); assay: Antibody binding to A431 cells with or without Gas6 pre-incubation; conditions: for Antibody binding to A431 cells: EC50 w/o Gas6 mean (s.d.): no Gas6 pre-incubation; for Antibody binding to A431 cells: EC50 in presence of Gas6 mean (s.d.): pre-incubation with 10 μg/mL Gas6
T3 construct: AXL-positive A431 cells were incubated; endogenous in cells; host or cells: A431

[5] = target: T4, human AXL (Homo sapiens, UniProt P30530); assay: Flow cytometry binding to HEK293T cells transfected with full length human AXL; conditions: at least 3 experiments
T4 construct: expression constructs for full length human AXL; expressed in transfected cells; host or cells: HEK293T

[6] = tested on: MDA-MB-231 and Calu-1 cells; assay: Internalization of cell surface bound HuMab-AXL by flow cytometry; assay type: cell-based, human; conditions: 1 hour 4° C, then overnight 37° C versus 4° C
Description: Internalization of cell surface bound HuMab-AXL antibodies to MDA-MB-231 and Calu-1 cells (human lung carcinoma cell line; ATCC, catalognumber HTB-54) was evaluated by flow cytometry. 50,000 cells were seeded in 96-well tissue culture plates and allowed to attach for 6 hrs at 37° C. Plates were incubated at 4° C. for 30 minutes before incubation with serial dilutions of AXL-antibodies (final concentration range 0.0032-10 μg/mL) at 4° C. for 1 hour. Subsequently, the medium was replaced by tissue culture medium without antibody and cells were incubated overnight (16-18 hours) at 37° C. or 4° C. […] Finally, cells were washed twice in PBS/0.1% BSA/0.02% azide, resuspended in 120 μL PBS/0.1% BSA/0.02% azide and analyzed on a FACS Cantoll (BD Biosciences).
as §1

[7] = target: T5, AXLECDHis (extracellular domain of human AXL) (Homo sapiens, UniProt P30530); assay: Binding affinity by Bio-Layer Interferometry (Octet); conditions: for Kdis / Kon: soluble AXLECDHis, 30° C, 1:1 model
T5 construct: the extracellular domain (ECD) of human AXL (aa 1-447) with a C-terminal His tag (AXLECDHis); His tag (C); made in house; host or cells: HEK-293F

[8] = target: T6, human AXL transiently expressed by HEK-293F cells (Homo sapiens, UniProt P30530); assay: Homogeneous antigen specific screening assay (FMAT); conditions: binding to human AXL on HEK-293F cells
T6 construct: HEK-293F cells transiently expressing full length human AXL; expressed in transfected cells; host or cells: HEK-293F

Molecule | binding to AXL with a mouse ECD [1] | Gas6 binding: Maximal binding in presence of AXL antibodies (% of binding in presence of control antibody) [2] [%] | Binding EC50 cynomolgus AXL Average (s.d.) [3] | Antibody binding to A431 cells: EC50 w/o Gas6 mean (s.d.) [4] | Antibody binding to A431 cells: EC50 in presence of Gas6 mean (s.d.) [4] | Binding EC50 human AXL Average (s.d.) [5] | internalization of membrane-bound antibody [6] | Kdis [7] [s⁻¹] | Kon [7] [M⁻¹ s⁻¹] | dissociation rate, fold higher than wild-type IgG1-AXL-183 [7] | Maximal binding [8] [Arbitrary units]
B1 | low | 96 | 0.254 (0.114) μg/mL | 0.49 (0.51) μg/mL | 0.62 (0.23) μg/mL | 0.176 (0.094) μg/mL | internalize | 0.0097 | 160000 |  | 
B2 | low |  | 0.324 (0.121) μg/mL |  |  | 0.350 (0.206) μg/mL | internalize | 0.001 | 42000 | approximately 2.5 fold | 
B3 | low | 115 | 0.309 (0.086) μg/mL | 0.69 (0.72) μg/mL | 1.19 (1.11) μg/mL | 0.526 (0.177) μg/mL |  | 0.00042 | 41000 |  | 
B4 |  | 113 |  | 0.12 (0.11) μg/mL | 0.30 (0.31) μg/mL |  | internalize | 0.0039 | 170000 |  | 
B5 |  |  |  |  |  |  |  |  |  |  | 2889
B6 |  |  |  |  |  |  |  |  |  |  | 2563
B7 | not detectable | 98 | 0.349 (0.160) μg/mL | 0.32 (0.35) μg/mL | 0.55 (0.69) μg/mL | 0.288 (0.206) μg/mL |  | 0.00013 | 240000 |  | 3154
